Test results: the Human Domainome abundance scans (Beltran et al. 2025)

B1: Far upstream element-binding protein 2, residues 142 to 214; numbered along this chain, Q92945 (parent)
chain: RTSMTEEYRVPDGMVGLIIGRGGEQINKIQQDSGCKVQISPDSGGLPERSVSLTGAPESVQKAKMMLDDIVSR

Variants of: B1
Assay: abundance fitness (aPCA) (normalised: wild type 0, dead -1); higher = more abundant; growth selection in yeast, the domain comes from the species named
Details: Homo sapiens

Abundance fitness of substitutions, site by site:
K64: M -0.457; I -0.275; G -0.757; A -0.558; V -0.465; P -0.687; N -0.703; D -0.567; C -0.554; T -0.445; Q -0.422; Y -0.926; E -0.653; H -0.442; R -0.016; S -0.553; W -0.662
V60: C -0.355; H -0.727; D -0.789; F -0.82; G -0.745; M -0.265; E -0.773; A -0.689; W -1.26; K -0.377; I 0.119; R -0.016; S -0.741; Y -0.763; L -0.191; N -0.636; Q -0.586
S52: Q -0.011; Y 0.097; R 0.01; V 0.041; W 0.01; P -0.874; N -0.177; T 0.068
M66: F -0.383; R -0.512; V -0.456; H -0.523; C -0.427; G -0.652; Q -0.301; Y -0.379; W -0.473; I -0.254; A -0.185; N -0.688; T -0.661; D -0.529; P -0.532; E -0.514; S -0.428; K -0.462; L -0.041
A63: L -1.46; C -0.222; M -1.24; W -1.55; V -0.748; G -0.447; H -0.528; D -0.666; S -0.782; N -0.661; Q -0.654; T -0.69; P -0.648; R -0.865; Y -0.811
D68: S -0.138; I -0.494; L -0.564; Q -0.116; V -0.456; E -0.06; H -0.241; G -0.144; T -0.278; C -0.372; R -0.126; P -0.882; K -0.098; A -0.188; N -0.007; F -0.469; M -0.337; W -0.62
T54: N -0.327; L -0.256; K -0.16; Y 0.028; Q -0.158; H -0.076; E -0.135; V -0.058; P -0.855; A -0.255; C -0.2; G -0.586; W -0.393; D -0.424; F -0.278; M -0.182; S -0.059; R -0.256; I -0.205
D69: W -0.321; Q -0.097; G -0.057; K -0.043; A -0.019; S -0.122; L -0.143; C -0.133; H -0.165; M -0.13; T -0.103; I -0.262; N -0.094; Y -0.27; V -0.181; E -0.002; F -0.284; P -0.589
V71: Y -0.22; G -0.294; D -0.458; N -0.461; F -0.157; P -0.553; R -0.224; K -0.174; I -0.057; T -0.032; E -0.485; C -0.052; W -0.211; A -0.142; M -0.037; Q -0.296; L 0.001
S72: A 0.016; C -0.116
P57: D -0.609; Y -0.402; R -0.141; K -0.185; H -0.213; F -0.357; M -0.225; W -0.24; T -0.325; G -0.434; E -0.259; V -0.192; A -0.101; I -0.289; S -0.245; C -0.432; L -0.316
L67: H -0.564; A -0.5; Y -0.84; S -0.553; Q -0.64; I 0.041; V -0.327; P -0.652; K -0.582; T -0.562; F -0.41; R -0.778; G -0.602; W -1.06; D -0.462; M -0.055; N -0.601
A56: N -0.272; W -0.281; R 0.012; C 0.088; I -0.126; D -0.025; Y -0.091; L -0.1; Q -0.1; T 0.113; G -0.114; F -0.315; K -0.153; V -0.099; M -0.154; S -0.008; H 0.026; E -0.003
K62: G -0.51; L -0.169; S -0.194; A -0.173; Q -0.048; N -0.449; H -0.231; D -0.663; C -0.288; V -0.127; W -0.541; E -0.286; I -0.126; M -0.068; T -0.204; F -0.625; Y -0.278
Q61: K 0.045; L -0.109; D -0.168; P -0.618; C -0.164; E 0.01; T -0.018; I -0.064; S -0.06; N 0.016; M -0.051; W -0.176; F -0.106; R 0.013; H -0.196; V -0.102; G -0.053; A 0.015
I70: C -0.141; K -0.395; Y -0.153; R -0.568; S -0.504; F -0.235; L 0.051; P -0.555; W -0.319; T -0.344; D -0.574; V -0.059; G -0.497; A -0.295; E -0.416
L53: Q -0.784; V -0.369; K -1; H -0.733; D -0.72; A -0.817; R -0.854; N -0.634; C -0.379; S -0.754; F -0.491; T -0.648; P -0.998; W -0.994; Y -1.04; I -0.09; E -0.869
S59: C -0.063; P -0.769; W -0.968; I -0.848; G -0.149; Q -0.037; A 0.008; V -0.326; L -0.619; N -0.062; K -0.216; H -0.081; M -0.206; R -0.373; F -0.528; Y -0.727; D 0.003
E58: C -0.305; N -0.275; R -0.198; K -0.065; V -0.209; M -0.125; H -0.071; G -0.124; Y -0.203; P -0.305; F -0.405; W -0.335; S -0.102; D -0.035; A -0.088; T -0.174; Q -0.122
M65: Q 0.131; K 0.067; V 0.008; D 0.02; S 0.025; R -0.023; F -0.136; N 0.017; C 0.011; W -0.211; I -0.025; A -0.008; H -0.066
G55: P -0.937; W -1.83; T -0.732; A -0.882; M -1.18; Y -0.878; H -0.887; F -1.41; R -0.965; L -1.18; C -0.818; D -0.83; N -0.922; K -0.681; E -0.927; Q -0.875; I -1.5; V -1.17
